Assay results published in paper PMC8376870, “Auto-inhibitory intramolecular S5/S6 interaction in the TRPV6 channel regulates breast cancer cell migration and invasion” (Communications Biology, 2021).

Molecular target: T1, GST-G511-V540 (TRPV6 S5 fragment) (human, UniProt Q9H1D0 511-540)
T1 construct: also called S5 (G511-V540); source: E. coli, purified (GST beads)
Test: pull-down; purified His- or GST-tagged peptides from E. coli incubated together overnight at 4 °C, 50% beads (GST or Ni-NTA) added, washed with 1% NP-40, western blot
Conditions: both partners purified

T1 sequence (Q9H1D0 511-540): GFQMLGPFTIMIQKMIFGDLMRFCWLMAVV

B1: His-MBP-A603-L632 (TRPV6 S6 fragment) (domain or fragment)
chain: not shown
notes: also called S6 (A603-L632); source: E. coli, purified (Ni-NTA beads)
B1: binds.
